Data from the nanobody polyreactivity screen of Harvey et al. (2022).

Assay: yeast display, Sf9 membrane polyspecificity reagent, FACS + sequencing; frameworks hold sequencing errors
Outline: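 Galactose induction of a Saccharomyces cerevisiae BJ5465 synthetic nanobody display library ran 36–48 hours. The cells were then stained for 1 hour at 4 °C with 10% biotinylated, detergent-solubilized Sf9 membrane reagent, pulled down on streptavidin microbeads and FACS-sorted into low and high (top ~1%) gates on expression and reagent-binding fluorescence. Labels for polyreactivity follow the gate of origin.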

Row | Sequence | polyreactivity (PSR sort gate)
1 | QVQLQESGVCLVQAGGSPRLSCAASDNIFPDSVMCWYRQAPGKERELVATIGFGATTNYADSVKGRFTISRDNAKNTVYLQMNSLKPEDTAVYYCAADPLNYEYFCYWGQGTQVTVSS | low polyreactivity
2 | QVQLVESGGGLVQAGGSLRLSCAASGRIFREYAMGWYRQAPGKERELVAAISSGASTYADSVKGRFTISRDNAKNTVYLQMNSLKPEDTAVYYCAKDIKLGPVGHSKYHRYDYWGQGTQVTVSS | low polyreactivity
3 | QVQHVESGGGLVQAGGSLRLSCAASALTFSSNAMGWYRQAPGKERELVAVITNGGSTNYADSVKGRLTISRDNAKNTVYLQMNSLKPEDTAVYYCAIDGGPAQDIGMDYWGQGTHVTVSS | low polyreactivity
4 | QVQLVESGGGLVQAGGSLRLSCAASGRIYWSYDMGWNRQAPVKERELVASITSDGSTNYADSVKGRFTISRDNAKNTVYLQMNSLKPEDTAVYYCAARPYKYDPFAQGDGGKYDYWGQGTQVTVSS | low polyreactivity
5 | QVQLVESGGGLVQAGGSLRLICAASGYIFYKNAMGWYRQAPGKERELVASITGTGGSTYYADSVKGRFTISRDNAKNTVYLQMNSLKPEDTAVYYCAADYTPWDPVSHWGQGTQVTVSS | low polyreactivity
6 | QVQLVESAGGLVQAGGSLRLSCAASGIIFVENAMGWYRQAPGKERELVAAISWDGGSTYYADSVKGRFTISRDNAKNTVYLQMNSLNPEDTAVYYCAADLTISYSQEYYYWGQGTQVTVSS | low polyreactivity
7 | QVQLVESGGGLVQAGGSLRLSCAASGSTFVVNAMGWYRQAPGKERELVAAIRIIGGSTYYADSVKGRFTISRDNAKNTVYLQMKSLKPEDTAVYYCVYSGYFPHQSKMDYWGQGTQVTVSS | low polyreactivity
8 | QVQLVESGGGLVQAGGSLRLSCADSGSSFPSYAMLWYRQAPGKERELVAAISSSGGRTYYADYVKGRFTISRDNAKNTVYLQMNSLIPVDTAVYYCAADRRKWPTGGYWGEGTQVTVSS | high polyreactivity
9 | QVQLVESGGGLVQAGGSLRLSCAASGRTLRAYAMGWYRQAPGKERELVAAITWSGGSTYYADSVKGRFTISRDTAKNTVYLQMNSLKPEDTAVYYCNARSYPDLYDYWGQGTQVTVSS | low polyreactivity
10 | QVQLVESGGGLVQAGVSLRLSCAASGRIFVGYAMGWYRQAPGKERELVAGIRYSGGSTYYADSVKGRFTISRDNAKNTVYLQMNSLKPEDTAVYYCATQVWHYAGRPNYKYDYWGQGTQVTVSS | low polyreactivity
11 | QVQLEESGGGLVQAGGSLRLSCAASGRTLQRNAMGWYRQAPGKERELVAAISWSGASTYYADSVKGRFTISRDNAKNTVYLQMTSLKPEDTAVYYCAATYIDRGNIYDYWGQGTQVTVSS | high polyreactivity
12 | QVQLVESGGGLVQAGGSLRLSCAASGFTFQVNTMGWYRQAPGKERELVAAISWSGGSTYYADSVKGRFTISRDNAKNTVYLQMNSLKPEDTAVYYCNAVPVSYRGGYWGQGTQVTVSS | low polyreactivity
13 | QVQIVESGGALYQAGGSLRLICAASGSTFSQYAMGWYRQEPGKERELLPTINSGGSTNYADSVKGRFTISRDNAMNTVYLQMNSLKPEETAVYYCAAREDLYLYYNGQRVQYDYWGQGTQVTVSS | low polyreactivity
14 | QVQLVESGGGLVQAGGSLRLSCAASGNIFFRNARGWYRQAPGKERELVAAITWSGGSTYYADSVKGRFTISRDNAKNTVFLQMNSLKPEDTAVYYCAADAGQYFTYSGDDNLDYWGQGTQVTVSS | low polyreactivity
15 | QVQLVVSGGGLVQAAGSLRLSCAASGLTFANYVMGWYRQAPGKERELVASISISGGSTYYADSEKGRFTISRDNAKNTVYLQMNSLKPEDTAVYYCAASFVSSYQYAYWGQVTQVTVSS | high polyreactivity
16 | QVQLVESGGGLVQAGGRLRLSCAASGRIFRRYAMGWYRQAPGKERELVAAITSSGTSTHYADSVKGRFTISRDNAKNTVYLQMNSLKPEDTAVYYCAARYSTYPWYNYCGQGTQVTVSS | high polyreactivity
17 | QVQLVESGGGLVQAGGSLRLSCAASGYIFHLYGMGWYRQAPGKERELVARISYRGGSTYYADSVKGRFTISRDNAKNTVYLQMNSLKTEDTAVYYCAKDYYKHYYWGQGTQVTVSS | high polyreactivity
18 | QVHLVESGGGLVQAGGSLRLSCAASGRTFYGYDMGWYRQAPGKERELVATISSGGSTNYADSVKGRFTISRDYAKNTVYLQMNSLKPEDTAVYYCNADSYEYPSPYRYYYLGYDYWGQGTQVTVSS | low polyreactivity
19 | QVQLVESGGGLVQAGGSLRLSCAASGSTITYNAMGWYRQAPGKERELVAAITVSDGSTYYADSVKGRFTISRDNAKNTVYLQMNSLKPEDTAVYYCNKDRGHPFKYDYWGQGTQVTVSS | low polyreactivity
20 | QVQLVESGGGLVQAGGSLRLSCAASGGTFAVNVMGWYRQAPGKERELVAAITSNGGSTYYADSVNGRFTISRDNAKNTVYLQMNSLKPEDTAVYYCAAEGSGWYTGHYYYWGQGTQVTVSS | low polyreactivity
21 | QVQLVESGGGLVQAGGSLRLSCAASGFIFANNAMVWYRQAPGKERELVAVISQRGGRTYYADSVKGRFTISRDNAKNTVYLQMNSLKPADTAVYYCAASYSIAYVSPRNWHDYWGQGTQVTVSS | low polyreactivity
22 | QVQLQESGGGLVQAGGSLRQSYAASGYIFPSLAMGWYRQAPGKEREFVAAIGRGSTNNYADSVKGRFTISRDNAKKTAYQQMNSLKPEDTAVYYCAAAASPLTRHLYWGQGTQVTVSS | low polyreactivity

Row | Sequence | polyreactivity (PSR sort gate)
23 | QVQLVESGGGLVQAGGSLRLTCAASRRTFEHYAMGWYRQAPVKEREYVAAINSSDGGTYYADSVKGRFTISRDNAKNTVYLQMIRLKPDDSAVYYCAAAEFGSVPGYEMDYWGQGTQVTVSS | low polyreactivity
24 | QVQLVESGGGLVQAGGSLRLSCAASGRTFRTNTMGWYRQAPGKERELVAAIRYIGGSTYYADSVKGRFTISRDNAKNTVYLQMNSLKPEDTAVYYCAAYRYGSRYGYEYWGQGTQVTVSS | high polyreactivity
25 | QVQLVESGGGLVQAGGSLRLSCAASGSTFSSYAMAWYRQAPGKERELVAAISSVGVDTYYADSVKGRFTISRDNAKNTVYLQMISLKPEDTAVYYCAAGRYGWWRHYFVFKYDYWGQGTQVTVSS | low polyreactivity
26 | QVQLVESGGGLVQAGGSLRLSCAASGFTFYVYAMGWYRQARGQERELVATISRGGSTNYADSVKGRFTISRDNAKNTVYLQMNSLKPEDTAVYYCAARKYHYFPSRYGYWGQGTQVTVSS | high polyreactivity
27 | QVQLVESGGGLVQAGGSLRLSCAASGFTFDGYAMGWDRQAPGKERELVAAISGGGSTYYADSVKGRFTISRDNAKNTVYLQMNSLKPEDTAVYYCAVVYRYRTRSRSYFLPFDYWGQGTQVTVSS | high polyreactivity
28 | QVHLVESGGGLVQAGRSLRLSCAASGLTFGTNPMGWYRQAPGKERELVAAITWRGGSTSYADSVKGRFTISRDNAKNTVYLQMNSLKPEDTAVYYCAVRLRYPGNTFYDWGQGTQVTVSS | high polyreactivity
29 | QDQLVESGGGFVQEGGSLRLSCDPSGRIFYGYVMGRYRQAHGKERELVAAISRRGGSTYYADSVKGRFTISRDNAKNTVYLQMNSMKPVVTAVDYCDAVLSFALVQYYGANRDDYWGQGTQVSVSS | high polyreactivity
30 | QVQLVESGGGLVQAGGSLRLSCAASGRTFVGYAMGGYRQAPGQERELVANMTTSGGNTYYADSVKGRFTISRDNAKNTDYLQMNSLKPEDTAVYYCAARVYWVTRAVSTSYYYWGQGTQGTVSS | high polyreactivity
31 | QVQHVESGGGLVQAGGSLRLSCAASGSTYTVYAMGRDRQAPGKERELVAAISGSGGRTYYADSVKGRFTISRDNAKNTVYLQMNILKPEDTGVYYCASQGNYWGQGTQVTVSS | high polyreactivity
32 | QVQLVESGGGLVQAGGSLRLSCAASGLTFSYYAMGWYRQAPGKERELVAAITRSGTRTYYADSVKGRFTISRDNAKNTVYLQMNSLKPVDTAVYYCARYLRGDFQQGEHWGQGTQVTVSS | high polyreactivity
33 | QVKLVESGAGLVQAGGSLRLSCAASGITFYWYAIGWYRPAPGKEMELVADITSSGSSTYYADSVKGRFTISRDNAKNTVYLQMNSLKPEDTAVYYCNARPGRRSLRSRTYDYWGQGTQVTVSS | high polyreactivity
34 | QVQQQESGGVLVHAGGSLRLSCAASGTISPLPAMGWYRQAPGKEREFVAGIDTGAISNYADSVKGRFTISRDNAKNTVYLQMNSLKPEDTAVYYCAVFPAAYEYYVRYYTYWGQGTQVTVSS | low polyreactivity
35 | QVQLVESGGGLVQAGGSLRLSCAASGSTFGYYGMGWYRQAPGKETELVAAISTGGRTNYADSVKGRFTISRDNAKNTVYLQMNSLKPEDTAVYYCAADFLSPAYRPSWYRFDYWGLGTQVTVSS | low polyreactivity
36 | QVQLVESGGGLVQAGGSLRLSCAASGITFRYYAMGWYRQAPGKERELVSVISKGGTSTYYADSVKGRFTISRDNAKITVYLQMNSLKPEDTAVYYCAAAYFSSGYKYYYWGQGNQVTVSS | high polyreactivity
37 | QVQLVESGGGLVQAGGSLRLSCAASGSIFYHNAMGWYRQAPGKERELVAAITSGGSTHYADSVKGRFTISRDNAKNTVYLQMNSLKPEDTAVYYCNARDRRRTNLLDYWGQGTQVTVSS | low polyreactivity
38 | QVELVESGGGLVQAGGSLRLSCAASGFTFHSNVMGWYRQAPGKERELVAAISNGGGSTYYADSVKGRFTISRDNAKNTVYLQMNSLKPEDTAVYYCDKRTYPGFGYWGQGTQVTVSS | high polyreactivity
39 | QVQLVESGGGFVQAGGSLRLSCAASGSTFHDNAMGWYRQAPGKERELVAGISISGVSTFYADSVKGRFTISRDYAKNTVYLQMNSLKPEDTAVYYCTADDVSAYQRFDYWGQGTQVTVSS | low polyreactivity
40 | QVQLVESGGGLVQAGGSLRLSCAASGNIFLYYAMGWYRQAPGKEMELVAAISWSGSSTYYADSVKGRFTISRDNAKNTVYLQMNSLKPEDTAVYYCNKRATRSRRRGYWGQGTQVTVSS | low polyreactivity
41 | QVQLVESGGGLVQAGGSLRLSCAASGIILQSYTMGWYRQAPGKERELVAALTKSGGRTYYADSVKGRFTISRDNAKNTVYLQMNSLKPEDTAVYYCAAPLSYSYDYSGQGTQVTVSS | high polyreactivity
42 | QVQLVESGGGLVQAGGSLRLSCAASVRTMRTYTMGWYRQAPGIERELVAAISSSDDSTYYADSVKGRFTISRDNEKNTVYLQMNSLKPEDTAVYYCAKDGLYPTEYGYWGQGTQVTVSS | high polyreactivity
43 | QVQLVESGGGLVQAGGSLRLSCAASGFTFTRYAMGWYRQAPGKERELVAAISWSGGSTYYADSVKGRFTISRDNAKNTVYLQMNSLKPEDTAVYYCAKRGTVRQGGYGYWGQGTLVTVSS | high polyreactivity
